The values below come from the DeepSol protein solubility set.

The nature of the data set: soluble on expression in E. coli; label from the status in PepcDB or PDB records.
For the sequence “MGSDKIHHHHHHDEEPKSTLTDVAYYKTQSQMESNVNYLYRTGAIGSYVDFGSAYIGPFASIQEELTGYFSNSYEGQEIVCRYTRELTRQQNTMQLASKMDKVWDDCYRGINVANGAIKHMPEVPMDQATADRLTAEAKFFRAFNYFYLVKTFGAVPFYTDPYELAENMELPRTETSTIYNQIESDLKDAMNVLPEATFAANGHRITKYVAAMTLTDVYMYQHKYAEAAETVRIVVNSNHKLTTNDDLAMNSAFNKLRSTDDLDEAIYAYEYDNQISPSNWLPTYAFDGDASSNGLFGTYAITQKVHGPNDRYLNIYESNDLRRQPNQFYHWTYTNPKTGKVWNSVGNAACCWYYYDEDALLTTGRGTKDWNVYRYAEALLDAAESIAQSTGVTAEAAGYLAQVKARANMEGKTAAEIASSLQSMGKQAFIEECWTERLRELPLEFKMWDMCVRTGMFPNISETTPGQVTYIPLVGAKNASGATIKESDLLWPLSVNEIQRNPSLTQNEGYSAK”, the “soluble on expression in E. coli” value is listed as “not soluble”.

As for “MDHSLNSLNNFDFLARSFARMHAEGRPVDILAVTGNMDEEHRTWFCARYAWYCQQMMQARELELEH”, the “soluble on expression in E. coli” value is on record as “soluble”. To “MSLGRAGRGIDSAVGILLCGSEDRAIHKFFRESAFPAEAQIHEILNVLSVNDGLTLRGIEQRTNLRYGQIEKALKLLVAENPSPVVYTEKLWRRTIVSFSPDHERINHLMNQRKSELADVESYITTKECKMQFLRRALDEPGAEHCGKCSSCLQHPLLSPDIDSGLLHAANLFIKHADLSLNLNKQVAAGAFTQYGFKGNLPASLQGSTGRILSRWGYSGWGKQVAQEKKTGRFSDELVEACAEMVRQRWNPHPEPTWVCCVPSLKHLDLVPDFESTSTWFLILPGDWRRNLAYLLLMPLKKSWTIHRRKCSKTVSTSVKISTGREGHHHHHH” belongs “not soluble”; to “MSLFLSNVILHQLRKNDNDELVVNYRAESLRNDTSTENLVAELHRVFNAKAGKGFGCFKSDSEFQLWLQEMRRGTLPFYEFSQQSAQRLKNELAKYPFADEGILVMAEYQSLATDYLFIGLLPLNQSLKVTEGLDISATDYLDINKMDIVARIDLSSYETDKESKRYLSYIKGRVGRKVADFFLDFLQADIGLDTKQQNQVLMQAVEDFCADAKFEKEEVISYKKQVYEYCNDQIKAGDEVRVQELSGELPPSNEGVNFFDFTREQGYQLEESFPADRSTVRKLTKYVGAGGGLNLSFDSLLLGERVFYDPETDTLTIKGTPPNLRDQLTRLRLEHHHHHH”, “soluble”; to “MSLYKIITSDLDETLLRQDGSISSANVAAIAAASKRGVKFVPNTGRSFLSIQPLLKTLNLYQRPNEYVVSYNGGVVVENQDNRVIVSNEMPYEEAAKAFAIMSEFDVDIHIYTLDHLFIYRPRADDRAYLQTRGVTFTEMTGAFDQFRNAQIMKVIVMNPDVMVRQQVYAAIKAAFTEINCTYSSGIYMEVNHAGVDKGRAILDLGDKLGIKADEIMAIGDNANDLGMLTKVGLPVSVANGIDDVKQVAKFVTPHDYERGVADAIETFILEGHHHHHH”, “soluble”. Next, “MGHHHHHHSHMMAALSRKMRVAPFKVGPDYIDPGYHGMAAGHQGRNLDSVMCGIDLIGPLYAHGSANADIAVVEGVMGLFDGRIAQGQNTADAQAQGSSAEIAATLGLPVVLVVDVRGMSQSVGAVVRGFATADPHVRIAGVILNKVGTDRHAEVCREAVEAVGVRVLGAIP”: “not soluble”. As for “MPGTRFSGKVVLISGSSKGIGQATAVKFAAEGAKIVLNGRSADDVEKTRKLCMEVGAKPWDLLPTVGDITNEDFVKMMVNTVIHNFGKLDILINNAGTLEVDMTGKEGWEMGVDVMDRSWNSNFKSVLMLTQAAMPHLIKTKGDIVNVSTFLSSGPIGVMSMPYYAVPKAALDQMSRSMAHEYMLKGVRLNTVNPGLVSTSFFARLPGVGDDNARKMENYVQSKTEYIPLGRVCQASDVAETILFLADRKVSECIVGQSIIIDGGSRLCCNIDMSDFKEQMAKA”, the “soluble on expression in E. coli” value is listed as “not soluble”.

Regarding “GPLGSNIEQYIHDLDSNSFELDLQFSEDEKRLLLEKQAGGNPWHQFVENNLILKMGPVDKRKGLFARRRQLLLTEGPHLYYVDPVNKVLKGEIPWSQELRPEAKNFKTFFVHTPNRTYYLMDPSGNAHKWCRKIQEVWRQRYQSHPDAAVQ”, the “soluble on expression in E. coli” value is reported as “soluble”. “MGSDKIHHHHHHVEYRLPAEGSNLVGENQYYVVPEGKLTLEQIASQFQLGLTNLLEANPGVDPFLPKPGSTLLIPHQLILPNAKREGVVINSAEMRLYYYPKGKNTVEVLPIGIGQIGKDTPENWVTTVQRKRANPTWTPTVNIRKSYAAKGITLPAVWPAGADNPMGLFALYVGNLYAVHGTNATFGIGLRVSSGCVRLRDEDIEHLYNSVPVGTRVEFINQPIKATEEPDGNRYLEVHEPLSRTQAEFDSLEPVALSFDKAMTRFVAHPDTDSFTLKRLLEQRTGMPTRINP”: the “soluble on expression in E. coli” value is on record as “not soluble”. Regarding “GSHMASGDATDITIYYKTGWTHPHIHYSLNQGAWTTLPGVPLTKSEYEGYVKVTIEAEEGSQLRAAFNNGSGQWDNNQGRDYDFSSGVHTLADGRILSGTPK”, the “soluble on expression in E. coli” value is “soluble”. With “MGSSHHHHHHSSGLVPRGSHMDFEEDYDAEFDDNQEGQLETPFPSVAGADDGDNDNDDSVAENMKKKQKREAVVDDGSENAFGIPEFTRKDKTLEEILEMMDSTPPIIPDAVIDYYLTKNGFNVADVRVKRLLALATQKFVSDIAKDAYEYSRIRSSVAVSNANNSQARARQLLQGQQQPGVQQISQQQHQQNEKTTASKVVLTVNDLSSAVAEYGLNIGRPDFYR”, the “soluble on expression in E. coli” value is reported as “soluble”. To “LDFDILTNDGTHRNMKLLIDLKNIFSRQLPKMPKEYIVKLVFDRHHESMVILKNKQKVIGGICFRQYKPQRFAEVAFLAVTANEQVRGYGTRLMNKFKDHMQKQNIEYLLTYADNFAIGYFKKQGFTKEHRMPQEKWKGYIKDYDGGTLMECYIHPYVDYGR” belongs “soluble”; to “MKVTLSVLKADIGSVGGHTLPSRKVLAKVEEVVREEVGRLLLDAYVFHIGDDIVLLLSHTRGVRNQEVHALAWKAFREGTEVAKAEGLYGAGQDLLKDAFTGNLHGLGPQVAEMEFTERPAEPFMVLAADKTEPGAFNLPLYLAFADPMYSSGLLLSPELRPGFRFRIMDLAQTERDSYIELDAPERLYDIATLLRDSHRFAIESIWSRKHGEQAAVVSTTRLRNIAGRYVGKDDPVAIVRTQKIFPATEEFGPVFALAPYVAGDTRGSHHMPLMPVRANTPASTFFCVPMVCGLAFSLREGRLSEPVDLFADPVWEAVRAKVVEKAQEMRRQGFYGPAMLPMEELEYTGIAERLKALEREFS”, “soluble”. Consider “MMQSGYRAPISRKSVVNTTPATPARTDRRTVSMAQQLLMPKATAVWLVDNTALSFDQIATFCKLHPLEVKAIADGEAAQGIKGLDPIATGQLSRDEIARAEGNPSHKLKLSEPKVRVPESKRRGPRYTPVSKRQDRPNAILWLVRNHPELKDAQISRLVGTTKSTIEQIRDRTHWNSANLTPMDPVTLGLCSQIDLDLEVERASRGRPLPTAEELGNTLQPATATEGLDYNNYQREEEQQIDADAVFKKLSSLKSAPKDEDEDDQYLEHHHHHH”, for which the “soluble on expression in E. coli” value is “soluble”. Consider “MSVIKIEKALKLDKVIFVDVRTEGEYEEDHILNAINMPLFKNNEHNEVGTIYKMQGKHEAIQKGFDYVSYKLKDIYLQAAELALNYDNIVIYCARGGMRSGSIVNLLSSLGVNVYQLEGGYKAYRNFVLEYLRHVMDTKNFVSVHGLTGTGKTDLLHLLDENGIDVLDLEGIAKNSGSTFGFITFDKKPPSQKNFETKLFESIFFSKENYIFVESESKRVGSVTVPNEIFEAMTREGHHILLECDIENRVDRLCRDYIYDKDEGNILILKECINKFRKRLGNKVVDDYIDLLESGEYKELVKRYLLEYYDPLYMHSVEKYKYSKIINFNDTQKALEDVIDLYESILEGESEC”, for which the “soluble on expression in E. coli” value is recorded as “not soluble”. For the sequence “MKVASGSTATAAAGPSCALKAGKTASGAGEVVRCLSEQSVAISRCAGGAGARLPALLDEQQVNVLLYDMNGCYSRLKELVPTLPQNRKVSKVEILQHVIDYIRDLQLELNSESEVGTPGGRGLPVRAPLSTLNGEISALTAEAACVPADDRILCRLEHHHHHH”, the “soluble on expression in E. coli” value is “soluble”. Next, “IEPEFIGNENYKNLIVSWGTTYYPIKDALEELNLKDTAFIHFSQIYPISESGEKYLKKAEKVVNIELNYTGQLGRLLKREFGIEMNDSILKYDGRVFSVEELSEKIKKVLRG”: “not soluble”.
